The values that follow come from US20190010193A1 (REALTA, published 2019).

Ends that are not written are not given here.

The target of one assay is C1q (human) (UniProt P02745). Nature of the assay: cell-based or functional assay.
For a further assay, the target named is T1, calreticulin (UniProt P27797 18-417, limits assumed).
T1 construct: also called CRT; recombinant calreticulin
T1 sequence (looked up): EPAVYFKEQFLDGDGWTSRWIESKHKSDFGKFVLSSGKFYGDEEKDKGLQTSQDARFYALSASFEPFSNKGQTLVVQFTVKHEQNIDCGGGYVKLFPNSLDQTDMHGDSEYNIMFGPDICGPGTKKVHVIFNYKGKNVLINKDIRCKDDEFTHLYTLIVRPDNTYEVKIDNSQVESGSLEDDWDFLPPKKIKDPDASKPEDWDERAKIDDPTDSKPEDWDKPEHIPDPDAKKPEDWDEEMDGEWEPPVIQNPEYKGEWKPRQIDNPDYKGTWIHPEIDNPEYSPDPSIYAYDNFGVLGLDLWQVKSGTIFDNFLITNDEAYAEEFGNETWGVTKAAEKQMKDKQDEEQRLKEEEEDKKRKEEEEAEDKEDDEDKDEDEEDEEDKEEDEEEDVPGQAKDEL
Put plainly: plates coated with C1q, calreticulin and BSA, PA peptide added (FIG. 14A).

The target in another assay is T2, BSA (UniProt P02769 25-607).
T2 construct: Negative control
T2 sequence (P02769 25-607 limits assumed): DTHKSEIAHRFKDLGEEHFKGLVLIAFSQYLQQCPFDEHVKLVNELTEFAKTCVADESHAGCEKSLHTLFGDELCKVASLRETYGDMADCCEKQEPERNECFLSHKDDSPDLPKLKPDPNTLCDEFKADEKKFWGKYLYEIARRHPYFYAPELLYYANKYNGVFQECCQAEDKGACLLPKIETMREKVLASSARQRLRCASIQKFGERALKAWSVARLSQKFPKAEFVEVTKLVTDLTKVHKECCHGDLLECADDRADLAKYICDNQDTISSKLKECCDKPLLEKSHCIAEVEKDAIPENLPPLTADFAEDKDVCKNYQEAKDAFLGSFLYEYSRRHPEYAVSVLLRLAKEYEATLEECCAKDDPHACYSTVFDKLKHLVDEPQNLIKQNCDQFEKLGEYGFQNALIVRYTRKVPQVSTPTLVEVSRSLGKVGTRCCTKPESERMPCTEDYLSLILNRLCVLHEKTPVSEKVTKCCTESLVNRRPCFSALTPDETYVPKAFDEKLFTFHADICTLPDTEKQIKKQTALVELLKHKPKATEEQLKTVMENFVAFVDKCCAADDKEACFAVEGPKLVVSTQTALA
Described as above.

Chain of C1q (human) (P02745 23-245, chain 1 of 3): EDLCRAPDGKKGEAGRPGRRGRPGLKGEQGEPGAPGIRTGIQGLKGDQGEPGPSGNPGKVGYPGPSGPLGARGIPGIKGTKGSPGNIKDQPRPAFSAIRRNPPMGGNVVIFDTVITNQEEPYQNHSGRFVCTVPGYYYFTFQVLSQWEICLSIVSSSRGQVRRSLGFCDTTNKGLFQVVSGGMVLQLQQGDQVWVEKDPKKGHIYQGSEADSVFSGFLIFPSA
Chain of C1q (human) (P02746 28-253, chain 2 of 3, further chain): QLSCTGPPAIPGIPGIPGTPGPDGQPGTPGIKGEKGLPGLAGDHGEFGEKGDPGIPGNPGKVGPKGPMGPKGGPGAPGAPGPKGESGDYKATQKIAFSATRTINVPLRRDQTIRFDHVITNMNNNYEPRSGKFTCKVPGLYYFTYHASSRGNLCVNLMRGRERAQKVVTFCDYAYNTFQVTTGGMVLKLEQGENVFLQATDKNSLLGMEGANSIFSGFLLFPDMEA
Chain of C1q (human) (P02747 29-245, chain 3 of 3, further chain): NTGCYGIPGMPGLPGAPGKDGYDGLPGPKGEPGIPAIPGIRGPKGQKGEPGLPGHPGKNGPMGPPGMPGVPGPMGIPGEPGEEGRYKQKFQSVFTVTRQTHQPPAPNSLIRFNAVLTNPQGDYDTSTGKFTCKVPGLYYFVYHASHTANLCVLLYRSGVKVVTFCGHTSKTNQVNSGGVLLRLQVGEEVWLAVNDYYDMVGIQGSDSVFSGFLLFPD

Turning to IALILEPICCQERAA-dPEG08 (cysteine pairing not given here) [PA-dPEG08], the Hemolysis (%), sensitized sheep RBCs, factor B-depleted human serum, peptide 0.77 mM with C1q (human) was 34.7%. Same read-out and setting: to IALILEPICCQERAA-dPEG12 (cysteine pairing not given here) [PA-dPEG12] belongs 11.4%.

As for IALILEPICCQERAA (also called PA; PIC1) [Polar Assortant peptide], the binding result with calreticulin and in the assay with BSA was “no binding” throughout. As to IALILEPICCQERAA-dPEG20 (cysteine pairing not given here) [PA-dPEG20], the Hemolysis (%), sensitized sheep RBCs, factor B-depleted human serum, peptide 0.77 mM with C1q (human) was 11.4%. Same read-out and setting: with IALILEPICCQERAA-dPEG06 (cysteine pairing not given here) [PA-dPEG06] the figure was 44.8%. IALILEPICCQERAA-dPEG24 (cysteine pairing not given here) [PA-dPEG24]: in the assay with C1q (human), the Hemolysis (%), sensitized sheep RBCs, factor B-depleted human serum, peptide 0.77 mM is 2.99%; the Hemolysis in presence of PA-dPEG24 (Abs 412 nm), plasma of Donor O+ #1 with B+ erythrocytes (0.747 without peptide) came to 0.008 Abs 412 nm; the inhibition of hemolysis of B erythrocytes by type-O plasma, dose-response (FIG. 8) was above 95%. On to IALILEPICCQERAA-dPEG03 (cysteine pairing not given here) [PA-dPEG03], for which the Hemolysis (%), sensitized sheep RBCs, factor B-depleted human serum, peptide 0.77 mM in the assay with C1q (human) amounted to 12.6%. Still for that read-out and setting: with IALILEPICCQERAA-dPEG04 (cysteine pairing not given here) [PA-dPEG04] the figure was 12.4%; with IALILEPICCQERAA-dPEG02 (cysteine pairing not given here) [PA-dPEG02], 11.6%; with IALILEPICCQERAA-dPEG16 (cysteine pairing not given here) [PA-dPEG16], 12%.
